Measured values as given in patent publication US20050003403A1 (IBC PHARMACEUTICALS, published 2005).

T1: carcinoembryonic antigen (CEA) (UniProt P06731 35-685, limits assumed)
T1 construct: Coated on ELISA wells (0.5 ug/well), injected in BIAcore, or mixed in solution for SE-HPLC
T1 sequence (looked up): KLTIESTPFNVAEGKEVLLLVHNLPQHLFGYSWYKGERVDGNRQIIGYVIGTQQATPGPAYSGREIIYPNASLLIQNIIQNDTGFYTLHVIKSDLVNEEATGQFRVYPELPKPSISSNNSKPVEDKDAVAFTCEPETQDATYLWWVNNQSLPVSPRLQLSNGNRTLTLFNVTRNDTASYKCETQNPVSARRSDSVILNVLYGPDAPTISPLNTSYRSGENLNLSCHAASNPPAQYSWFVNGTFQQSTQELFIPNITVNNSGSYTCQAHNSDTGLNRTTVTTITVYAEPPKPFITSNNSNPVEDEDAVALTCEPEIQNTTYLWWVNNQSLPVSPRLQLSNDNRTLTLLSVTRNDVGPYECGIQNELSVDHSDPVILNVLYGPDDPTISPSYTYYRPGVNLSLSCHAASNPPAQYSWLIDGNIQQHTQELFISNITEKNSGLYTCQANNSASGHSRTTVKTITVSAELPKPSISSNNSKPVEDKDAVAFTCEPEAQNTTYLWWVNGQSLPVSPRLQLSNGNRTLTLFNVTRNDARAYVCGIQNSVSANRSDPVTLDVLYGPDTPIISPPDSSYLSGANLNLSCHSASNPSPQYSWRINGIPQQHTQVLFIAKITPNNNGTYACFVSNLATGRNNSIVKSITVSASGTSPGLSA

B1: BS14HP (bispecific antibody)
chain 1: EAEAEFMEVQLVESGGDLVKPGGSLKLSCAASGFTFSIYTMSWLRQTPGKGLEWVATLSGDGDDIYYPDSVKGRFTISRDNAKNSLYLQMNSLRAEDTALYYCARVRLGDWDFDVWGQGTTVSVSSGGGGSDIQLTQSPSSLSASVGDRVTITCKASQDVGTSVAWYQQKPGKAPKLLIYWTSTRHTGVPSRFSGSGSGTDFTFTISSLQPEDIATYYCQQYSLYRSFGQGTKVEIKRLEGGGSEVQLVESGGGVVQPGRSLRLSCSASGFDFTTYWMSWVRQAPGKGLEWIGEIHPDSSTINYAPSLKDRFTISRDNAKNTLFLQMDSLRPEDTGVYFCASLYFGFPWFAYWGQGTPVTVSVDHHHHHH
chain 2: EAEAEFDIQLTQSPSSLSASVGDRVTITCKASQDVGTSVAWYQQKPGKAPKLLIYWTSTRHTGVPSRFSGSGSGTDFTFTISSLQPEDIATYYCQQYSLYRSFGQGTKVEIKRGGGQFMEVQLVESGGGVVQPGRSLRLSCSASGFDFTTYWMSWVRQAPGKGLEWIGEIHPDSSTINYAPSLKDRFTISRDNAKNTLFLQMDSLRPEDTGVYFCASLYFGFPWFAYWGQGTPVTVSGGGGSDIVMTQSPSSLAVSPGERVTLTCKSSQSLFNSRTRKNYLGWYQQKPGQSPKLLIYWASTRESGVPDRFSGSGSGTDFTLTINSLQAEDVAVYYCTQVYYLCTFGAGTKLELKRLDHHHHHH
notes: Non-covalent heterodimer with two CEA sites and one HSG site; The alpha-factor signal peptide is removed on secretion; also called bispecific trivalent heterodimer; hMN-14 x hMN-14 x 679 produced in Pichia pastoris
B2: BS1.5H (bispecific antibody)
chain 1: MEVQLVESGGDLVKPGGSLKLSCAASGFTFSIYTMSWLRQTPGKGLEWVATLSGDGDDIYYPDSVKGRFTISRDNAKNSLYLQMNSLRAEDTALYYCARVRLGDWDFDVWGQGTTVSVSSGGGGSDIQLTQSPSSLSASVGDRVTITCKASQDVGTSVAWYQQKPGKAPKLLIYWTSTRHTGVPSRFSGSGSGTDFTFTISSLQPEDIATYYCQQYSLYRSFGQGTKVEIKRLEHHHHHH
chain 2: MEVQLVESGGGVVQPGRSLRLSCSASGFDFTTYWMSWVRQAPGKGLEWIGEIHPDSSTINYAPSLKDRFTISRDNAKNTLFLQMDSLRPEDTGVYFCASLYFGFPWFAYWGQGTPVTVSGGGGSDIVMTQSPSSLAVSPGERVTLTCKSSQSLFNSRTRKNYLGWYQQKPGQSPKLLIYWASTRESGVPDRFSGSGSGTDFTLTINSLQAEDVAVYYCTQVYYLCTFGAGTKLELKRLEHHHHHH
B3: hBS14 (bispecific antibody)
chain 1: MEVQLVESGGDLVKPGGSLKLSCAASGFTFSIYTMSWLRQTPGKGLEWVATLSGDGDDIYYPDSVKGRFTISRDNAKNSLYLQMNSLRAEDTALYYCARVRLGDWDFDVWGQGTTVSVSSGGGGSDIQLTQSPSSLSASVGDRVTITCKASQDVGTSVAWYQQKPGKAPKLLIYWTSTRHTGVPSRFSGSGSGTDFTFTISSLQPEDIATYYCQQYSLYRSFGQGTKVEIKRLEGGGSEVQLVESGGGVVQPGRSLRLSCSASGFDFTTYWMSWVRQAPGKGLEWIGEIHPDSSTINYAPSLKDRFTISRDNAKNTLFLQMDSLRPEDTGVYFCASLYFGFPWFAYWGQGTPVTVSVDHHHHHH
chain 2: MDIQLTQSPSSLSASVGDRVTITCKASQDVGTSVAWYQQKPGKAPKLLIYWTSTRHTGVPSRFSGSGSGTDFTFTISSLQPEDIATYYCQQYSLYRSFGQGTKVEIKRGGGQFMEVQLVESGGGVVQPGRSLRLSCSASGFDFTTYWMSWVRQAPGKGLEWIGEIHPDSSTINYAPSLKDRFTISRDNAKNTLFLQMDSLRPEDTGVYFCASLYFGFPWFAYWGQGTPVTVSGGGGSDIVMTQSPSSLAVSPGERVTLTCKSSQSLFNSRTRKNYLGWYQQKPGQSPKLLIYWASTRESGVPDRFSGSGSGTDFTLTINSLQAEDVAVYYCTQVYYLCTFGAGTKLELKRLDHHHHHH
notes: 79.4 kDa heterodimer of polypeptide 1 and polypeptide 2, produced in SP2/0, YB2/0 or NS0 cells; Bivalent for CEA, monovalent for HSG; also called bispecific trivalent heterodimer expressed in myeloma cells; hMN-14 x hMN-14 x 679
B4: hMN-14 F(ab')2 (other)
VH: EVQLVESGGGVVQPGRSLRLSCSASGFDFTTYWMSWVRQAPGKGLEWIGEIHPDSSTINYAPSLKDRFTISRDNAKNTLFLQMDSLRPEDTGVYFCASLYFGFPWFAYWGQGTPVTVS
VL: DIQLTQSPSSLSASVGDRVTITCKASQDVGTSVAWYQQKPGKAPKLLIYWTSTRHTGVPSRFSGSGSGTDFTFTISSLQPEDIATYYCQQYSLYRSFGQGTKVEIKR
notes: F(ab')2 of humanized anti-CEA hMN-14, 100 kDa; The VH in the construct ends ...VTVS

Columns and labels:
[1] = target: T1, carcinoembryonic antigen (CEA); assay: competitive ELISA, CEA-coated wells (0.5 ug/well), competitor HRP-conjugated hMN-14 IgG (1 nM)
Description: HRP-conjugated hMN14 IgG (1 nM) was mixed with either BS14HP, BS1.5H (a bispecific diabody, monovalent for CEA and monovalent for HSG, derived from the same variable domains as BS14HP) or hMN14 F(ab′)₂ at concentrations ranging from 1-250 nM, prior to incubation in CEA-coated (0.5 μg/well) wells. The % inhibition is plotted vs. nM concentration of sample.
The CEA binding of BS14HP was analyzed in a competitive ELISA and compared to BS1.5H and hMN-14 F(ab′)₂, which have one and two CEA binding groups, respectively (FIG. 6). HRP-conjugated hMN-14 IgG (1 nM) was mixed with either BS14HP, BS1.5H or hMN-14 F(ab′)₂ at concentrations ranging from 1 to 250 nM, prior to incubation in CEA-coated (0.5 μg/well) wells. The IC₅₀ for BS14HP was 2.7 nM which is close to 2.0 nM for hMN14 F(ab′)₂.

[2] = target: T1, carcinoembryonic antigen (CEA); assay: BIAcore, hBS14 captured on HSG sensorchip, then CEA injected

Row | Binder | IC50 [1] | binding result [2]
1 | B1 | 2.7 nM | –
2 | B2 | 10 nM | –
3 | B3 | – | binds
4 | B4 | 2 nM | –
